Numbering of substitutions follows the chain as printed.
How the values were obtained:
[1] = biological target: T1, recombinant His-Strep tagged human Tyro3 extracellular domain (human, UniProt Q06418 41-429); assay: BLI (Octet K2), 1:1 global fit; analyte concentration of this kobs not given
T1 construct: also called hTyro3 ECD; full Tyro3 ECD
T1 sequence: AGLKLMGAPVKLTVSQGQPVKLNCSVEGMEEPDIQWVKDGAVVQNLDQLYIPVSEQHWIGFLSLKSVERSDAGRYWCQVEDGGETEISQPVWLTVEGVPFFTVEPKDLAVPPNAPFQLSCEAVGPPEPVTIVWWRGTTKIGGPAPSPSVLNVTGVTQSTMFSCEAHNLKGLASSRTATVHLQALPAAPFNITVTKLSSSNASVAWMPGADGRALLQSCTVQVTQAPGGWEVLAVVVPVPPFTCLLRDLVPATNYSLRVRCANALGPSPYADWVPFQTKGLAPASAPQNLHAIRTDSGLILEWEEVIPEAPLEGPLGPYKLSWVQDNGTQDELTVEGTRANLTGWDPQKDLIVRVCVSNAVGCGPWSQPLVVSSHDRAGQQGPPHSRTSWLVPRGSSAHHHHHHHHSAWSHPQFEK
Method: (§1) Affinity determinations were performed using biolayer interferometry on an Octet K2 instrument (Pall/ForteBio) equipped with anti-Human Kinetics (AHC) disposable fiber-optic biosensor tips. All experiments were conducted at 30° C. in the recommended Fortebio running buffer (PBS with 0.1% (w/v) bovine serum albumin (BSA) and 0.02% (v/v) Tween_20). This buffer was also used for dilution of ligand (here the antibody) and of the analyte (here the extra cellular domain of human Tyro3 protein). Samples in a 96-well microplates (No. Black polypropylene low binding plates, Greiner Bio-One, Frickenhausen, Germany) were agitated at 1000 rpm. […] Between measurements, the anti-human Tyro3 biosensor surfaces were regenerated by exposing them to 3 cycles of 5 sec in 10 mM glycine, pH 1.5, followed by 5 sec in PBS. Association phase was measured for 300 seconds, dissociation phase depending on the interaction for 300 seconds depending on dissociation step. All measurements were corrected for baseline drift using the double reference substraction, that is to say by subtracting a control sensor without ligand exposed to each concentration of the extra cellular domain of human Tyro3 protein and a reference well with ligand submitted to running buffer only. Affinity, association (kon) and dissociation rate constants (koff) for each antibody were calculated applying a 1:1 interaction model fitting global, Rmax linked by sensor) on the ForteBio data analysis software 9.0.

[2] = biological target: T1, recombinant His-Strep tagged human …; assay: BLI (Octet K2), IgG on AHC tips, hTyro3 ECD analyte, 1:1 global fit; KD Error 5,96E-10
Method: as §1, with “All measurements were corrected for baseline drift using the double reference substraction, that is to say by subtracting a control sensor without ligand exposed to each concentration of the extra cellular domain of human Tyro3 protein and a reference well with ligand submitted to running buffer only.” left out

[3] = biological target: T1, recombinant His-Strep tagged human …; assay: BLI (Octet K2), IgG on AHC tips, hTyro3 ECD analyte, 1:1 global fit; kon Error 1,34E+02
Method: as §1, with “All measurements were corrected for baseline drift using the double reference substraction, that is to say by subtracting a control sensor without ligand exposed to each concentration of the extra cellular domain of human Tyro3 protein and a reference well with ligand submitted to running buffer only.” left out

[4] = biological target: T1, recombinant His-Strep tagged human …; assay: BLI (Octet K2), IgG on AHC tips, hTyro3 ECD analyte, 1:1 global fit; kdis(1/s); kdis Error 1,42E-05
Method: as §1, with “All measurements were corrected for baseline drift using the double reference substraction, that is to say by subtracting a control sensor without ligand exposed to each concentration of the extra cellular domain of human Tyro3 protein and a reference well with ligand submitted to running buffer only.” left out

[5] = biological target: T1, recombinant His-Strep tagged human …; assay: sandwich ELISA, Strep-tagged hTyro3 ECD captured on StrepMAB plate, IgG 3-fold from 3 µg/mL, anti-human IgG1-HRP
Method: (§2) A double sandwich ELISA was developed. This assay consisted in measuring the binding of the anti-Tyro3 antibodies to be tested on immobilized strep-tagged entire human Tyro3 ECD captured directly on ELISA plate pre-coated with an anti-strep mAb (StrepMAB-Immo coated microplates from IBA biotech). Briefly, the 96 wells of StrepMAB-Immo coated microplate were washed three times with 300 μL of the PBS Tween 0.2% (referred as ELISA washing solution). The capture of an excess of purified strep tagged hTyro3 ECD protein was achieved by a one hour incubation at room temperature. In these experiments, 3 μg of purified protein diluted in PBS, BSA 1% (referred as ELISA diluent solution) were immobilized per well. The wells were washed three times with 300 μL of the washing solution. The non-specific binding sites on the well surface were blocked during 60 min at room temperature with 200 μL/well of blocking solution (PBS, BSA 3%). The wells were washed five times with 300 μL of the washing solution. Then, 100 μl (in duplicates) of the different concentrations of anti-Tyro3 antibodies to be tested diluted in ELISA diluent solution, were added per well and allowed to incubate during 1 hour at room temperature. An Irrelevant control IgG2656 was also added in this experiment. For anti-Tyro3 antibodies in the ScFv format, experiments were performed with 6 concentrations in duplicates (FIG. 3A). For anti-Tyro3 antibodies in the IgG format, experiments were performed with 9 concentrations in duplicates (FIG. 3B). […] For IgGs experiments, starting concentration for first dilution was 3 μg/ml and then dilutions of 3 fold in the ELISA diluent solution were performed. The wells were washed five times with 300 μL of the washing solution. […] The mix was allowed to incubated 60 min at room temperature.

[6] = biological target: T2, cynomolgus Tyro3 ECD, His-Strep tagged; assay: sandwich ELISA, Strep-tagged cynomolgus Tyro3 ECD captured on StrepMAB plate, IgG 3-fold from 3 µg/mL, anti-human IgG1-HRP
T2 construct: also called cyno TYRO3 ECD 8hisstrep
T2 extracellular domain: T1 sequence with V67A, I191V, A309G, R376H
Method: [The procedure below names another species; the source lists this species under the same test.] as §2

[7] = biological target: T1, recombinant His-Strep tagged human …; assay: BLI (Octet K2), IgG on AHC tips, hTyro3 ECD analyte, 1:1 global fit; KD Error 4,92E-09
Method: as §1, with “All measurements were corrected for baseline drift using the double reference substraction, that is to say by subtracting a control sensor without ligand exposed to each concentration of the extra cellular domain of human Tyro3 protein and a reference well with ligand submitted to running buffer only.” left out

[8] = biological target: T1, recombinant His-Strep tagged human …; assay: BLI (Octet K2), IgG on AHC tips, hTyro3 ECD analyte, 1:1 global fit; kon Error 3,95E+02
Method: as §1, with “All measurements were corrected for baseline drift using the double reference substraction, that is to say by subtracting a control sensor without ligand exposed to each concentration of the extra cellular domain of human Tyro3 protein and a reference well with ligand submitted to running buffer only.” left out

[9] = biological target: T1, recombinant His-Strep tagged human …; assay: BLI (Octet K2), IgG on AHC tips, hTyro3 ECD analyte, 1:1 global fit; kdis(1/s); kdis Error 1,02E-04
Method: as §1, with “All measurements were corrected for baseline drift using the double reference substraction, that is to say by subtracting a control sensor without ligand exposed to each concentration of the extra cellular domain of human Tyro3 protein and a reference well with ligand submitted to running buffer only.” left out

[10] = biological target: T1, recombinant His-Strep tagged human …; assay: BLI (Octet K2), IgG on AHC tips, hTyro3 ECD analyte, 1:1 global fit; KD Error 6,89E-09
Method: as §1, with “All measurements were corrected for baseline drift using the double reference substraction, that is to say by subtracting a control sensor without ligand exposed to each concentration of the extra cellular domain of human Tyro3 protein and a reference well with ligand submitted to running buffer only.” left out

[11] = biological target: T1, recombinant His-Strep tagged human …; assay: BLI (Octet K2), IgG on AHC tips, hTyro3 ECD analyte, 1:1 global fit; kon Error 8,90E+02
Method: as §1, with “All measurements were corrected for baseline drift using the double reference substraction, that is to say by subtracting a control sensor without ligand exposed to each concentration of the extra cellular domain of human Tyro3 protein and a reference well with ligand submitted to running buffer only.” left out

[12] = biological target: T1, recombinant His-Strep tagged human …; assay: BLI (Octet K2), IgG on AHC tips, hTyro3 ECD analyte, 1:1 global fit; kdis(1/s); kdis Error 1,71E-04
Method: as §1, with “All measurements were corrected for baseline drift using the double reference substraction, that is to say by subtracting a control sensor without ligand exposed to each concentration of the extra cellular domain of human Tyro3 protein and a reference well with ligand submitted to running buffer only.” left out

[13] = biological target: T1, recombinant His-Strep tagged human …; assay: BLI (Octet K2), IgG on AHC tips, hTyro3 ECD analyte, 1:1 global fit; KD Error 9,30E-10
Method: as §1, with “All measurements were corrected for baseline drift using the double reference substraction, that is to say by subtracting a control sensor without ligand exposed to each concentration of the extra cellular domain of human Tyro3 protein and a reference well with ligand submitted to running buffer only.” left out

[14] = biological target: T1, recombinant His-Strep tagged human …; assay: BLI (Octet K2), IgG on AHC tips, hTyro3 ECD analyte, 1:1 global fit; kon Error 7,98E+02
Method: as §1, with “All measurements were corrected for baseline drift using the double reference substraction, that is to say by subtracting a control sensor without ligand exposed to each concentration of the extra cellular domain of human Tyro3 protein and a reference well with ligand submitted to running buffer only.” left out

[15] = biological target: T1, recombinant His-Strep tagged human …; assay: BLI (Octet K2), IgG on AHC tips, hTyro3 ECD analyte, 1:1 global fit; kdis(1/s); kdis Error 4,43E-05
Method: as §1, with “All measurements were corrected for baseline drift using the double reference substraction, that is to say by subtracting a control sensor without ligand exposed to each concentration of the extra cellular domain of human Tyro3 protein and a reference well with ligand submitted to running buffer only.” left out

[16] = biological target: T1, recombinant His-Strep tagged human …; assay: BLI (Octet K2), IgG on AHC tips, hTyro3 ECD analyte, 1:1 global fit; KD Error 4,35E-10
Method: as §1, with “All measurements were corrected for baseline drift using the double reference substraction, that is to say by subtracting a control sensor without ligand exposed to each concentration of the extra cellular domain of human Tyro3 protein and a reference well with ligand submitted to running buffer only.” left out

[17] = biological target: T1, recombinant His-Strep tagged human …; assay: BLI (Octet K2), IgG on AHC tips, hTyro3 ECD analyte, 1:1 global fit; kon Error 1,04E+03
Method: as §1, with “All measurements were corrected for baseline drift using the double reference substraction, that is to say by subtracting a control sensor without ligand exposed to each concentration of the extra cellular domain of human Tyro3 protein and a reference well with ligand submitted to running buffer only.” left out

[18] = biological target: T1, recombinant His-Strep tagged human …; assay: BLI (Octet K2), IgG on AHC tips, hTyro3 ECD analyte, 1:1 global fit; kdis(1/s); kdis Error 3,33E-05
Method: as §1, with “All measurements were corrected for baseline drift using the double reference substraction, that is to say by subtracting a control sensor without ligand exposed to each concentration of the extra cellular domain of human Tyro3 protein and a reference well with ligand submitted to running buffer only.” left out

B1: IgG2710 (antibody, V domains shown)
VH: EVQLVQSGADVKKPGASLTISCQASGYTFTDYWISWVRQKPGKGLEWMGVINKYASWTRYGPSFQGHVTISADRSTATAYLQWRSLEASDTAMYYCVRSGGLTSGGTIPEYYQHWGPGTLVTVSS
VL: SYELTQPPSVSVSPGQTARITCSGDALPKKYAYWYQQKSGQAPVLVIYEDSKRPSGIPERFSGSSSGTMATLTISGAQVEDEADYYCYSQNPQGNYFVFGGGTKLTVL
notes: also called IGX2710
Question: With B1 as the binder, how does the kobs [1] read?
Answer: Its kobs is 0.00321 s⁻¹.

Question: What about the Kd [2] of the same binder?
Answer: The Kd was 73.5 nM.

Question: What about the kon [3] of the same binder?
Answer: The kon was 29000 M⁻¹ s⁻¹.

Question: And the koff [4]?
Answer: Its koff is 0.00213 s⁻¹.

Question: And the “EC50 (read off the curve)” value [5]?
Answer: The value was roughly 0.03 µg/mL.

Question: And the “EC50 (read off the curve)” value [6]?
Answer: The value was roughly 0.01 µg/mL.

B2: IgG2711 (antibody, V domains shown)
VH: B1 VH with V50Q, N52R, K53G, Y54Q, A55H, W57S, R59L, S99H, G101A, L102S
VL: B1 VL with S51A, P54S, Q90L, N91S, P92D, Q93S
notes: also called IGX2711
Question: Which kobs [1] does the source give for B2 here?
Answer: Its kobs is 0.014 s⁻¹.

Question: And the Kd [7]?
Answer: Its Kd is 307 nM.

Question: And the kon [8]?
Answer: Its kon is 32300 M⁻¹ s⁻¹.

Question: What about the koff [9] of the same binder?
Answer: The koff was 0.00992 s⁻¹.

Question: And the “EC50 (read off the curve)” value [5]?
Answer: The value was roughly 0.01 µg/mL.

Question: Does B2 bind [6]?
Answer: Result: binds

B3: IgG2414 (antibody, V domains shown)
VH: B1 VH with V50Q, K53R, Y54H, W57N, R59M, L102A
VL: B1 VL with S51W, P54A, N91E, P92R, Q93K
notes: also called IGX2414
Question: Which kobs [1] does the source give for B3 here?
Answer: Its kobs is 0.0203 s⁻¹.

Question: And the Kd [10]?
Answer: The Kd was 308 nM.

Question: And the kon [11]?
Answer: Its kon is 46900 M⁻¹ s⁻¹.

Question: What about the koff [12] of the same binder?
Answer: Its koff is 0.0144 s⁻¹.

Question: Does B3 bind [6]?
Answer: Result: binds

B4: IgG2415 (antibody, V domains shown)
VH: B1 VH with V50Q, N52R, K53G, Y54P, W57A, R59H, S99H, G100Q, G101Q, L102Q
VL: B1 VL with S51K, P54I, Q90T, N91S, P92T, Q93G, F97M
notes: also called IGX2415
Question: Which results are given for B4?
Answer: kobs [1]: 0.0102 s⁻¹; Kd [13]: 70.2 nM; kon [14]: 76800 M⁻¹ s⁻¹; koff [15]: 0.00539 s⁻¹; EC50 (read off the curve) [5]: ~0.02 µg/mL; binding result [6]: binds

B5: IgG2713 (antibody, V domains shown)
VH: B1 VH with V50R, N52S, K53R, Y54H, A55G, W57Q, R59Y, S99A, L102Q
VL: B1 VL with S51H, P54A, Q90I, N91S, Q93A, F97G
notes: also called IGX2713
Question: What does the source list for B5?
Answer: kobs [1]: 0.00934 s⁻¹; Kd [16]: 39.3 nM; kon [17]: 122000 M⁻¹ s⁻¹; koff [18]: 0.00478 s⁻¹; EC50 (read off the curve) [5]: ~0.03 µg/mL; binding result [6]: binds

Reference: patent US20180105596A1 (ELSALYS BIOTECH, published 2018)
